This is an account of results in paper PMC2824050.

The target in this experiment is HSV-1 cytoplasmic capsids (HSV-1, KOS strain) (UniProt P10202). In words: co-sedimentation.
Sequence of UniProt P10202 (P10202 whole entry, looked up): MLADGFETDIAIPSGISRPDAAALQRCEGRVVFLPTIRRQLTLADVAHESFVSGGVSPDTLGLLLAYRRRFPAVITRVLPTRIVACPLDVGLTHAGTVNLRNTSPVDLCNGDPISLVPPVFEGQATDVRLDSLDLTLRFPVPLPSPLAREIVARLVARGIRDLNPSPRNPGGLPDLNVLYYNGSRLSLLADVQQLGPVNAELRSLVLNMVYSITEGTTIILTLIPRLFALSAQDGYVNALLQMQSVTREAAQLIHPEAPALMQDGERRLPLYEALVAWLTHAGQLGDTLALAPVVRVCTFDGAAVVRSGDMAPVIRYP

B1: UL16 tegument protein of herpes simplex virus (natural protein)
chain: MAQLGPRRPLAPPGPPGTLPRPDSRAGARGTRDRVDDLGTDVDSIARIVNSVFVWRVVRADERLKIFRCLTVLTEPLCQVALPNPDPGRALFCEIFLYLTRPKALRLPPNTFFALFFFNRERRYCAIVHLRSVTHPLTPLLCTLTFARIRAATPPEETPDPTTEQLAEEPVVGELDGAYLVPAKTPPEPGACCALGPGAWWHLPSGQIYCWAMDSDLGSLCPPGSRARHLGWLLARITNHPGGCESCAPPPHIDSANALWLSSVVTESCPCVAPCLWAKMAQCTLAVQGDASLCPLLFGHPVDTVTLLQAPRRPCITDRLQEVVGGRCGADNIPPTSAGWRLCVFSSYISRLFATSCPTVARAVARASSSDPE
As to B1, the amount of UL16 on ΔUL37 capsids relative to WT stood at 42%.
